According to patent publication US20240207433A1:

Molecular target: human alpha-enolase protein (ENO-1) (human) (UniProt P06733)
Test: cell-based or functional assay

UniProt P06733, sequence (P06733 2-434): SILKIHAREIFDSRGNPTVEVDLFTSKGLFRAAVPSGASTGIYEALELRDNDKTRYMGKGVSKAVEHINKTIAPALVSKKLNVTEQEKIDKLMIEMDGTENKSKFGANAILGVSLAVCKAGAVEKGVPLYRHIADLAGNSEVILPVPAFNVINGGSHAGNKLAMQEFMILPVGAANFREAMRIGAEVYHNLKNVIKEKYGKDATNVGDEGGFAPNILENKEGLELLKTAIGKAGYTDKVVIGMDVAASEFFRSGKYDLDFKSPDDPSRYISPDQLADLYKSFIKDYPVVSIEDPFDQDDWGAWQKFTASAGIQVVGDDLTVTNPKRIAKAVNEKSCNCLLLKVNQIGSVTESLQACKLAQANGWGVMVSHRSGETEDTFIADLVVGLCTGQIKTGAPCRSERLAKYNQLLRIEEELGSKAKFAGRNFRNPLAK

HuL001-SMCC-DM1 gave an IC50 of cytotoxicity (CCK-8), A549, IL-6 of 11.2 nM, an IC50 of cytotoxicity (CCK-8), A549, MCP-1 of 12.1 nM and an IC50 of cytotoxicity (CCK-8), A549, TGF-β of 8.2 nM. The IC50 of cytotoxicity (CCK-8), A549, untreated was 56 nM, the IC50 of cytotoxicity (CCK-8), DB, IL-6 was 5.8 nM and the IC50 of cytotoxicity (CCK-8), DB, MCP-1 was 4.1 nM. It also gave an IC50 of cytotoxicity (CCK-8), DB, TGF-β of 5.1 nM, an IC50 of cytotoxicity (CCK-8), DB, untreated of 5.5 nM and an IC50 of cytotoxicity (CCK-8), GA-10, IL-6 of 26.6 nM. The IC50 of cytotoxicity (CCK-8), GA-10, MCP-1 was 25.6 nM, the IC50 of cytotoxicity (CCK-8), GA-10, TGF-β was 22.8 nM and the IC50 of cytotoxicity (CCK-8), GA-10, untreated was 37.8 nM. It also gave an IC50 of cytotoxicity (CCK-8), HT, IL-6 of 6.6 nM, an IC50 of cytotoxicity (CCK-8), HT, MCP-1 of 7.6 nM and an IC50 of cytotoxicity (CCK-8), HT, TGF-β of 6.1 nM. It also gave an IC50 of cytotoxicity (CCK-8), HT, untreated of 7.3 nM, an IC50 of cytotoxicity (CCK-8), MCF-7, IL-6 of 38.6 nM and an IC50 of cytotoxicity (CCK-8), MCF-7, MCP-1 of 36.2 nM. For the same substance, the IC50 of cytotoxicity (CCK-8), MCF-7, TGF-β was 53.5 nM, the IC50 of cytotoxicity (CCK-8), MCF-7, untreated was 74.9 nM and the IC50 of cytotoxicity (CCK-8), MDA-MB-175, IL-6 was 45.1 nM. The IC50 of cytotoxicity (CCK-8), MDA-MB-175, MCP-1 was 40.5 nM, the IC50 of cytotoxicity (CCK-8), MDA-MB-175, TGF-β was 38.3 nM and the IC50 of cytotoxicity (CCK-8), MDA-MB-175, untreated was 76.4 nM. It also gave an IC50 of cytotoxicity (CCK-8), MDA-MB-231, IL-6 of 34.6 nM, an IC50 of cytotoxicity (CCK-8), MDA-MB-231, MCP-1 of 22.4 nM and an IC50 of cytotoxicity (CCK-8), MDA-MB-231, TGF-β of 24.2 nM. The IC50 of cytotoxicity (CCK-8), MDA-MB-231, untreated was 69 nM, the IC50 of cytotoxicity (CCK-8), MDA-MB-453, IL-6 was 22.8 nM and the IC50 of cytotoxicity (CCK-8), MDA-MB-453, MCP-1 was 24.7 nM. It also gave an IC50 of cytotoxicity (CCK-8), MDA-MB-453, TGF-β of 16.6 nM, an IC50 of cytotoxicity (CCK-8), MDA-MB-453, untreated of 39.8 nM and an IC50 of cytotoxicity (CCK-8), PANC-1, IL-6 of 134 nM. The IC50 of cytotoxicity (CCK-8), PANC-1, MCP-1 was 110 nM, the IC50 of cytotoxicity (CCK-8), PANC-1, TGF-β was 116 nM and the IC50 of cytotoxicity (CCK-8), PANC-1, untreated was 174 nM. The IC50 of cytotoxicity (CCK-8), Raji, IL-6 was 17.1 nM, the IC50 of cytotoxicity (CCK-8), Raji, MCP-1 was 21.7 nM and the IC50 of cytotoxicity (CCK-8), Raji, TGF-β was 18.6 nM. For the same substance, the IC50 of cytotoxicity (CCK-8), Raji, untreated was 32.2 nM, the IC50 of cytotoxicity (CCK-8), SU-DHL-4, IL-6 was 8.3 nM and the IC50 of cytotoxicity (CCK-8), SU-DHL-4, MCP-1 was 7.6 nM. It also gave an IC50 of cytotoxicity (CCK-8), SU-DHL-4, TGF-β of 7.4 nM, an IC50 of cytotoxicity (CCK-8), SU-DHL-4, untreated of 7.65 nM and an IC50 of cytotoxicity (CCK-8), Toledo, IL-6 of 11.4 nM. It also gave an IC50 of cytotoxicity (CCK-8), Toledo, MCP-1 of 8.1 nM, an IC50 of cytotoxicity (CCK-8), Toledo, TGF-β of 9.8 nM and an IC50 of cytotoxicity (CCK-8), Toledo, untreated of 8 nM. It also gave an IC50 of cytotoxicity (CCK-8), U937, IL-6 of 7.1 nM, an IC50 of cytotoxicity (CCK-8), U937, MCP-1 of 9.7 nM and an IC50 of cytotoxicity (CCK-8), U937, TGF-β of 7.5 nM. It also gave an IC50 of cytotoxicity (CCK-8), U937, untreated of 75 nM.
